Tested on: cardiac myoblasts
Assay: Transmission electron microscopy of cardiac myoblasts
Assay type: cell-based
Conditions: ApoO cells
Source text: After ethical committee approval, all patients in this study gave written consent for sample collection and molecular analysis prior to inclusion. Patients were carefully selected by physicians from the Department of Cardiology, Toulouse University Hospital, prior to coronary by-pass surgery. Bioinformatics. Microarray expression data from human heart samples were downloaded from the GEO repository (GSE1145). This series consisted of 107 myocardial samples collected from patients undergoing cardiac transplantation whose failure arises from different etiologies (e.g. idiopathic dilated cardiomyopathy, ischemic cardiomyopathy, valvular cardiomyopathy, and hypertrophic cardiomyopathy) and from “normal” organ donors whose hearts cannot be used for transplants. Arrays were intensity normalized and hierarchical clustering (average group linkage, Pearson correlation, threshold r=0.8) was applied to identify groups of co-expressed genes. […] All ApoO sequences within the expression vectors were verified by DNA double strand sequencing using ABI PRISM®BigDye™ Terminator version 3.1 Ready reaction cycle sequencing kit (Life Technologies SAS, Villebon sur Yvette) and loaded on an ABI 3130XL DNA sequencing instrument (Life Technologies SAS, Villebon sur Yvette). […]

B1: ApoO: 198-amino acid apolipoprotein, SEQ ID NO: 1; tested by overexpression from expression vectors or transgene (protein, listed as Homo sapiens)
chain: MFKVIQRSVGPASLSLLTFKVYAAPKKDSPPKNSVKVDELSLYSVPEGQSKYVEEARSQLEESISQLRHYCEPYTTWCQETYSQTKPKMQSLVQWGLDSYDYLQNAPPGFFPRLGVIGFAGLIGLLLARGSKIKKLVYPPGFMGLAASLYYPQQAIVFAQVSGERLYDWGLRGYIVIEDLWKENFQKPGNVKNSPGTK
- plasma membrane morphology (TEM): formation of blebs

From US10272135B2, “Apolipoprotein O and fragments thereof for inducing apoptosis in a cancerous cell” (INSERM (INSTITUT NATIONAL DE LA SANTÉ ET DE LA RECHERCHE …, priority 2014, dated 2019)
